# Reference: patent publication US9187525B2, “Methods of treating ophthalmic diseases using NPR-B agonists” (Shire Orphan Therapies GmbH, dated 2015)
# Numbered stars: 1 amine (or outer) side, 2 acyl side, 3 side chain; on linkers, the order of the positions; unused ones are H or OH. Square brackets hold non-standard residues; d marks the D form. Ends that are not written are not given here. * marks the point of attachment. Pro(trans-4-NH2) = O=C([C@@H]1C[C@@H](N[*:3])CN1[*:1])[*:2]; 1381 = (S)-3,3-dimethylbutan-2-amine, C[C@H](N*)C(C)(C)C; Sni = (S)-nipecotic acid, O=C([C@H]1CCCN([*:1])C1)[*:2]; 5121 = 1-propyl-butyl-amine, CCCC(CCC)N*; dGly(2-thienyl) = N[C@@H](C(=O)O)c1cccs1; Gly(2-thienyl) = N[C@H](C(=O)O)c1cccs1; Butanoyl(4-cHex) = O=C(CCCC1CCCCC1)*; NMeR = CN[C@@H](CCCNC(=N)N)C(=O)O; dDap(Me2) = CN(C)C[C@@H](N)C(=O)O; Hyp = O=C(O)[C@@H]1C[C@@H](O)CN1; NMeF = CN[C@@H](Cc1ccccc1)C(=O)O; NMeI = CC[C@H](C)[C@H](NC)C(=O)O; tBuAla = CC(C)(C)C[C@H](N)C(=O)O; NMeD = CN[C@@H](CC(=O)O)C(=O)O; NMeL = CN[C@@H](CC(C)C)C(=O)O; BB725 = not defined here; Octanoyl = CCCCCCCC(=O)*; 1860 = not defined here; 1906 = not defined here; 2906 = cyclobutyl-amine; Api = NC1(C(=O)O)CCNCC1; Che = not defined here; Occ = octanoic acid
# T1: natriuretic peptide receptor-B (human)
# T1 chain: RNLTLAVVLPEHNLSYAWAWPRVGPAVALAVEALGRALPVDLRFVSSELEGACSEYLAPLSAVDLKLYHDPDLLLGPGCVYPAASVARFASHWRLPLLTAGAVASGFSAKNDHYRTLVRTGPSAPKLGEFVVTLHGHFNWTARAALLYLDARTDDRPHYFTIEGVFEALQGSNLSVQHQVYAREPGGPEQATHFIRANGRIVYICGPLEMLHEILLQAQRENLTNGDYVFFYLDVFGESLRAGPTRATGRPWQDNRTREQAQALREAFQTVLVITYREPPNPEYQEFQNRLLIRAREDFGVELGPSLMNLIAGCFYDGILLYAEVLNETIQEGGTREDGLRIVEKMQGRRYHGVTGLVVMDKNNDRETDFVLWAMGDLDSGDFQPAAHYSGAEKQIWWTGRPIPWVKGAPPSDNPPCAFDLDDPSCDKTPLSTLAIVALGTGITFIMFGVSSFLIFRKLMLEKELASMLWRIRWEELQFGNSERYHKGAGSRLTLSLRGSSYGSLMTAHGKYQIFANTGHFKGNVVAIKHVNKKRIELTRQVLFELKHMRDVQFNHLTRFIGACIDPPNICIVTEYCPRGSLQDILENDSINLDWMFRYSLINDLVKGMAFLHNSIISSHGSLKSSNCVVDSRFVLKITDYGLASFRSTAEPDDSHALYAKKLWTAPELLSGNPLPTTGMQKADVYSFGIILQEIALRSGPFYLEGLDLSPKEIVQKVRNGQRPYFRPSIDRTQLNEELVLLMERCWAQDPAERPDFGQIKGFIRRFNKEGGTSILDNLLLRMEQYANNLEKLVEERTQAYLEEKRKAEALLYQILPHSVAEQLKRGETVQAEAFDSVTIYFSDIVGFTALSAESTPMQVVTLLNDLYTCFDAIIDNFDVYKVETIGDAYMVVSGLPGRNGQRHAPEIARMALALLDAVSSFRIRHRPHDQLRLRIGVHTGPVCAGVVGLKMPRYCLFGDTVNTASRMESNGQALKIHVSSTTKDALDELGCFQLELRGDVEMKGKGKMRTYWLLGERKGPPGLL
# B1: JAL-1511 (peptide)
# peptide: [Occ][Sni]FLL[Hyp][NMeL]DP[1906]
# modifications: not fully specified (residue 4); printed as Occ-Sni-Phe-leu-Leu-Hyp-Nml-Asp-Pro-1906; reading uncertain
# B2: JAL-1513 (peptide)
# peptide: [Occ][Sni]FLL[Hyp][NMeL]DP[5121]
# modifications: not fully specified (residue 4); printed as Occ-Sni-Phe-leu-Leu-Hyp-Nml-Asp-Pro-5121
# B3: JAL-1509 (peptide)
# peptide: [Occ][Sni]FLL[Hyp][NMeL]DP[1381]
# modifications: not fully specified (residue 4); printed as Occ-Sni-Phe-leu-Leu-Hyp-Nml-Asp-Pro-1381
# B4: JAL-1598 (peptide)
# peptide: Octanoyl-[Sni]F[dL][NMeL][Hyp][NMeL]DP[Che]
# modifications: not fully specified; printed as Occ-Sni-Phe-leu-Nml-Hyp-Nml-Asp-Pro-Che; reading uncertain
# B5: JAL-1508 (peptide)
# peptide: [Occ][Sni]FLL[Hyp][NMeL]DP[2906]
# modifications: not fully specified (residue 4); printed as Occ-Sni-Phe-leu-Leu-Hyp-Nml-Asp-Pro-2906
# B6: JAL-1574 (peptide)
# peptide: [Occ]XFXLXXDRI-NH2
# modifications: not fully specified (residues 2, 4, 6, 7); printed as Occ-Sni-Phe-nml-Leu-Hyp-Nml-Asp-Arg-Ile-NH2
# B7: JAL-1597 (peptide)
# peptide: Octanoyl-[Sni][NMeF][dL]L[Hyp][NMeL]DP[Che]
# modifications: not fully specified; printed as Occ-Sni-Nmf-leu-Leu-Hyp-Nml-Asp-Pro-Che; reading uncertain
# B8: JAL-1594 (peptide)
# peptide: Octanoyl-[Sni]FLL[Hyp][NMeL]VP[Che]
# modifications: not fully specified (some residues); printed as Occ-Sni-Phe-leu-Leu-Hyp-Nml-Val-Pro-Che; reading uncertain
# B9: JAL-1509_02 (peptide)
# peptide: [Occ][Sni]FLL[Hyp][NMeL]DP[1381]
# modifications: not fully specified (residue 4); printed as Occ-Sni-Phe-leu-Leu-Hyp-Nml-Asp-Pro-1381
# B10: JAL-1510 (peptide)
# peptide: [Occ][Sni]FLL[Hyp][NMeL]DP[1860]
# modifications: not fully specified (residue 4); printed as Occ-Sni-Phe-leu-Leu-Hyp-Nml-Asp-Pro-1860; reading uncertain
# B11: JAL-1595 (peptide)
# peptide: Octanoyl-[Sni]FLL[Hyp][tBuAla]DP[Che]
# modifications: not fully specified (some residues); printed as Occ-Sni-Phe-leu-Leu-Hyp-Npg-Asp-Pro-Che; reading uncertain
# B12: JAL-1596 (peptide)
# peptide: Octanoyl-[Sni]FLL[Hyp]IDP[Che]
# modifications: not fully specified (some residues); printed as Occ-Sni-Phe-leu-Leu-Hyp-Ile-Asp-Pro-Che; reading uncertain
# B13: JAL-1512_02 (peptide)
# peptide: [Occ][Sni]FLL[Hyp][NMeL]DP[Che]
# modifications: not fully specified (residue 4); printed as Occ-Sni-Phe-leu-Leu-Hyp-Nml-Asp-Pro-Che; reading uncertain
# B14: JAL-1556 (peptide)
# peptide: [Occ][dA]F[dL]L[Hyp][NMeL][BB725]RI-NH2
# modifications: reading uncertain; also: printed as Occ-ala-Phe-leu-Leu-Hyp-Nml-(BB725)-Arg-Ile-NH2
# Biological target: T1, natriuretic peptide receptor-B
# Assay: cell-based or functional assay
row,"EC50 group, cGMP in GTM-3 cells [µM]",Binder
1,≤ 5,B1
2,≤ 15,B2
3,≤ 1,[Occ][Sni]F[dL]L[Hyp][NMeL]DR[NMeI]-NH2 [JAL-1569]
4,≤ 5,B3
5,≤ 5,[Occ][Sni]FGL[Pro(trans-4-NH2)][NMeL]DPI-NH2 [JAL-1560]
6,≤ 15,{Butanoyl(4-cHex)}-[dA][dA]FGLKLDRI-NH2 [JAL-0693]
7,≤ 1,[Occ][Sni]F[dDap(Me2)]L[Hyp][NMeL]DPI-NH2 [JAL-1580]
8,≤ 15,B4
9,≤ 1,[Occ][Sni]F[Api]L[Pro(trans-4-NH2)][NMeL]DPI-NH2 [JAL-1561]
10,≤ 15,B5
11,≤ 15,B6
12,≤ 15,[Occ][Sni]F[dL][NMeL][Hyp][NMeL]DRI-NH2 [JAL-1572]
13,≤ 1,[Occ][Sni]F[dL]L[Pro(trans-4-NH2)][NMeL]DPI-NH2 [JAL-1559]
14,≤ 15,[Occ][Sni]F[dDap(Me2)]L[Hyp][NMeL][NMeD]RI-NH2 [JAL-1577]
15,≤ 1,B7
16,≤ 5,[Occ][Sni]FLL[Hyp][NMeL]DRI-NH2 [JAL-1554]
17,≤ 15,[Occ][Sni]FAL[Hyp][NMeL]DRI-NH2 [JAL-1553]
18,≤ 5,B8

row,"EC50 group, cGMP in GTM-3 cells [µM]",Binder
1,≤ 5,[Occ][Sni]F[dL]L[Hyp][NMeL]D[NMeR]I-NH2 [JAL-1570]
2,≤ 5,[Occ][Sni]F[dDap(Me2)][NMeL][Hyp][NMeL]DRI-NH2 [JAL-1578]
3,≤ 1,[Occ][Sni]F[Api]L[Hyp][NMeL]DRI-NH2 [JAL-1555]
4,≤ 1,[Occ][Sni][NMeF][dDap(Me2)]L[Hyp][NMeL]DRI-NH2 [JAL-1579]
5,≤ 15,{Butanoyl(4-cHex)}-[dP]FGLKLDRI-NH2 [JAL-0695]
6,≤ 15,[Occ][dA]F[dL]L[Hyp][NMeL][Gly(2-thienyl)]RI-NH2 [JAL-1557]
7,≤ 5,B9
8,≤ 15,[Occ][Sni]F[dDap(Me2)]L[Hyp][NMeL]DR[NMeI]-NH2 [JAL-1575]
9,≤ 1,B10
10,≤ 1,B11
11,≤ 5,B12
12,≤ 1,[Occ][Sni]F[dL]L[Pro(trans-4-NH2)][NMeL]DP[Che] (reading uncertain; also: printed as Occ-Sni-Phe-leu-Leu-Tap-Nml-Asp-Pro-Che) [JAL-1568]
13,≤ 1,B13
14,≤ 1,B14
15,≤ 15,Octanoyl-[dP]FGLKLDRI-NH2 [JAL-0694]
16,≤ 1,[Occ][Sni][NMeF][dL]L[Hyp][NMeL]DRI-NH2 [JAL-1573]
17,≤ 1,[Occ][dA]F[dL]L[Hyp][NMeL][dGly(2-thienyl)]RI-NH2 [JAL-1558]
18,≤ 1,[Occ][Sni]F[dDap(Me2)]L[Hyp][NMeL]D[NMeR]I-NH2 [JAL-1576]
